Columns and labels:
[1] = target: HIV-1 subtype C Env clone COT6.15 V295N (HIV-1 subtype C)
[2] = target: HIV-1 subtype C Env clone Du151.2 V295N (HIV-1 subtype C)
[3] = target: HIV-1 subtype C Env clone COT9.6 V295N (HIV-1 subtype C)
[4] = target: HIV-1 subtype C envelope glycoprotein (Env, gp160) clone CAP63.cvl6GA (HIV-1 subtype C)
[5] = target: HIV-1 subtype A envelope glycoprotein (Env) clone Q461.e2 (HIV-1 subtype A)
[6] = target: HIV-1 subtype C envelope glycoprotein (Env, gp160) clone CAP206.08J (HIV-1 subtype C)
[7] = target: HIV-1 subtype C envelope glycoprotein (Env, gp160) clone CAP63.A9J (HIV-1 subtype C)
[8] = target: HIV-1 subtype A envelope glycoprotein (Env) clone 92RW009 (HIV-1 subtype A)
[9] = target: HIV-1 subtype C envelope glycoprotein (Env, gp160) clone COT9.6 (HIV-1 subtype C)
[10] = target: HIV-1 subtype B envelope glycoprotein (Env, gp160) clone CAAN5342.A2 (HIV-1 subtype B)
[11] = target: HIV-1 subtype C envelope glycoprotein (Env, gp160) clone CAP177.cvl96 (HIV-1 subtype C)
[12] = target: HIV-1 subtype A envelope glycoprotein (Env) clone Q23.17 (HIV-1 subtype A)
[13] = target: HIV-1 subtype A envelope glycoprotein (Env) clone Q168.a2 (HIV-1 subtype A)
[14] = target: HIV-1 subtype C envelope glycoprotein (Env, gp160) clone CAP261.cvl93 (HIV-1 subtype C)
[15] = target: HIV-1 subtype B envelope glycoprotein (Env, gp160) clone THRO4156.18 (HIV-1 subtype B)
[16] = target: HIV-1 subtype C envelope glycoprotein (Env, gp160) clone Du151.2 (HIV-1 subtype C)
[17] = target: HIV-1 subtype C envelope glycoprotein (Env, gp160) clone CAP270.cvl44 (HIV-1 subtype C)
[18] = target: HIV-1 subtype C envelope glycoprotein (Env, gp160) clone COT6.15 (HIV-1 subtype C)
[19] = target: HIV-1 subtype C envelope glycoprotein (Env, gp160) clone CAP210.E8J (HIV-1 subtype C)
[20] = target: HIV-1 subtype C envelope glycoprotein (Env, gp160) clone CAP228.51J (HIV-1 subtype C)
[21] = target: HIV-1 subtype B envelope glycoprotein (Env, gp160) clone PVO.4 (HIV-1 subtype B)
[22] = target: HIV-1 subtype C envelope glycoprotein (Env, gp160) clone CAP45.G3J (HIV-1 subtype C)
[23] = target: HIV-1 subtype C envelope glycoprotein (Env, gp160) clone RP6.6 (HIV-1 subtype C)
[24] = target: HIV-1 subtype C envelope glycoprotein (Env, gp160) clone TM7.9 (HIV-1 subtype C)
[25] = target: HIV-1 subtype C envelope glycoprotein (Env, gp160) clone CAP256.F7J (HIV-1 subtype C)
[26] = target: HIV-1 subtype B envelope glycoprotein (Env, gp160) clone WITO4160.33 (HIV-1 subtype B)
[27] = target: HIV-1 subtype B envelope glycoprotein (Env, gp160) clone AC10.0.29 (HIV-1 subtype B)
[28] = target: HIV-1 subtype A envelope glycoprotein (Env) clone Q842.d12 (HIV-1 subtype A)
[29] = target: HIV-1 subtype B envelope glycoprotein (Env, gp160) clone QH0692.42 (HIV-1 subtype B)

**Q.** What does the source list for “Griffithsin (from UniProt P84801 1-121) (natural protein)”?
**A.** IC50 of neutralisation of Env-pseudotyped virus (TZM-bl assay) [1]: 0.06 nM; IC50 of neutralisation of Env-pseudotyped virus (TZM-bl assay) [2]: 0.03 nM; IC50 of neutralisation of Env-pseudotyped virus (TZM-bl assay) [3]: 0.06 nM; IC50 of neutralisation of Env-pseudotyped virus (TZM-bl assay) [4]: 25.7 nM; IC50 of neutralisation of Env-pseudotyped virus (TZM-bl assay) [5]: 0.12 nM; IC50 of neutralisation of Env-pseudotyped virus (TZM-bl assay) [6]: 30.9 nM; IC50 of neutralisation of Env-pseudotyped virus (TZM-bl assay) [7]: 23.2 nM; IC50 of neutralisation of Env-pseudotyped virus (TZM-bl assay) [8]: 1.8 nM; IC50 of neutralisation of Env-pseudotyped virus (TZM-bl assay) [9]: 1.2 nM; IC50 of neutralisation of Env-pseudotyped virus (TZM-bl assay) [10]: 11.7 nM; IC50 of neutralisation of Env-pseudotyped virus (TZM-bl assay) [11]: 55.9 nM; IC50 of neutralisation of Env-pseudotyped virus (TZM-bl assay) [12]: 1.9 nM; IC50 of neutralisation of Env-pseudotyped virus (TZM-bl assay) [13]: 3.3 nM; IC50 of neutralisation of Env-pseudotyped virus (TZM-bl assay) [14]: 4.2 nM; IC50 of neutralisation of Env-pseudotyped virus (TZM-bl assay) [15]: 1.2 nM; IC50 of neutralisation of Env-pseudotyped virus (TZM-bl assay) [16]: 1.5 nM; IC50 of neutralisation of Env-pseudotyped virus (TZM-bl assay) [17]: 0.3 nM; IC50 of neutralisation of Env-pseudotyped virus (TZM-bl assay) [18]: 0.4 nM; IC50 of neutralisation of Env-pseudotyped virus (TZM-bl assay) [19]: 0.2 nM

**Q.** With “Scytovirin (from UniProt P86041 1-95) (natural protein)” as the molecule, how does the IC50 of neutralisation of Env-pseudotyped virus (TZM-bl assay) [1] read?
**A.** The IC50 of neutralisation of Env-pseudotyped virus (TZM-bl assay) was 16.1 nM.

**Q.** And the IC50 of neutralisation of Env-pseudotyped virus (TZM-bl assay) [2]?
**A.** The IC50 of neutralisation of Env-pseudotyped virus (TZM-bl assay) was 32.5 nM.

**Q.** What about the IC50 of neutralisation of Env-pseudotyped virus (TZM-bl assay) [3] of the same molecule?
**A.** Its IC50 of neutralisation of Env-pseudotyped virus (TZM-bl assay) is 63 nM.

**Q.** And the IC50 of neutralisation of Env-pseudotyped virus (TZM-bl assay) [4]?
**A.** Its IC50 of neutralisation of Env-pseudotyped virus (TZM-bl assay) is 43.8 nM.

**Q.** And the IC50 of neutralisation of Env-pseudotyped virus (TZM-bl assay) [5]?
**A.** Its IC50 of neutralisation of Env-pseudotyped virus (TZM-bl assay) is 18.9 nM.

**Q.** What about the IC50 of neutralisation of Env-pseudotyped virus (TZM-bl assay) [6] of the same molecule?
**A.** The IC50 of neutralisation of Env-pseudotyped virus (TZM-bl assay) was 113 nM.

**Q.** And the IC50 of neutralisation of Env-pseudotyped virus (TZM-bl assay) [7]?
**A.** The IC50 of neutralisation of Env-pseudotyped virus (TZM-bl assay) was 29.8 nM.

**Q.** And the IC50 of neutralisation of Env-pseudotyped virus (TZM-bl assay) [20]?
**A.** Its IC50 of neutralisation of Env-pseudotyped virus (TZM-bl assay) is 20.1 nM.

**Q.** What about the IC50 of neutralisation of Env-pseudotyped virus (TZM-bl assay) [21] of the same molecule?
**A.** The IC50 of neutralisation of Env-pseudotyped virus (TZM-bl assay) was 25.2 nM.

**Q.** And the IC50 of neutralisation of Env-pseudotyped virus (TZM-bl assay) [8]?
**A.** Its IC50 of neutralisation of Env-pseudotyped virus (TZM-bl assay) is 21.8 nM.

**Q.** And the IC50 of neutralisation of Env-pseudotyped virus (TZM-bl assay) [9]?
**A.** Its IC50 of neutralisation of Env-pseudotyped virus (TZM-bl assay) is 57.6 nM.

**Q.** And the IC50 of neutralisation of Env-pseudotyped virus (TZM-bl assay) [22]?
**A.** Its IC50 of neutralisation of Env-pseudotyped virus (TZM-bl assay) is 16.9 nM.

**Q.** What about the IC50 of neutralisation of Env-pseudotyped virus (TZM-bl assay) [10] of the same molecule?
**A.** The IC50 of neutralisation of Env-pseudotyped virus (TZM-bl assay) was 188 nM.

**Q.** What about the IC50 of neutralisation of Env-pseudotyped virus (TZM-bl assay) [23] of the same molecule?
**A.** The IC50 of neutralisation of Env-pseudotyped virus (TZM-bl assay) was 11.3 nM.

**Q.** What about the IC50 of neutralisation of Env-pseudotyped virus (TZM-bl assay) [11] of the same molecule?
**A.** The IC50 of neutralisation of Env-pseudotyped virus (TZM-bl assay) was 21.8 nM.

**Q.** What about the IC50 of neutralisation of Env-pseudotyped virus (TZM-bl assay) [12] of the same molecule?
**A.** The IC50 of neutralisation of Env-pseudotyped virus (TZM-bl assay) was 29.8 nM.

**Q.** What about the IC50 of neutralisation of Env-pseudotyped virus (TZM-bl assay) [13] of the same molecule?
**A.** Its IC50 of neutralisation of Env-pseudotyped virus (TZM-bl assay) is 9.4 nM.

**Q.** And the IC50 of neutralisation of Env-pseudotyped virus (TZM-bl assay) [14]?
**A.** Its IC50 of neutralisation of Env-pseudotyped virus (TZM-bl assay) is 6.2 nM.

**Q.** What about the IC50 of neutralisation of Env-pseudotyped virus (TZM-bl assay) [24] of the same molecule?
**A.** The IC50 of neutralisation of Env-pseudotyped virus (TZM-bl assay) was 12.1 nM.

**Q.** And the IC50 of neutralisation of Env-pseudotyped virus (TZM-bl assay) [15]?
**A.** Its IC50 of neutralisation of Env-pseudotyped virus (TZM-bl assay) is 42.6 nM.

**Q.** What about the IC50 of neutralisation of Env-pseudotyped virus (TZM-bl assay) [25] of the same molecule?
**A.** The IC50 of neutralisation of Env-pseudotyped virus (TZM-bl assay) was 6.7 nM.

**Q.** What about the IC50 of neutralisation of Env-pseudotyped virus (TZM-bl assay) [26] of the same molecule?
**A.** The IC50 of neutralisation of Env-pseudotyped virus (TZM-bl assay) was 24.8 nM.

**Q.** And the IC50 of neutralisation of Env-pseudotyped virus (TZM-bl assay) [16]?
**A.** The IC50 of neutralisation of Env-pseudotyped virus (TZM-bl assay) was 27.5 nM.

**Q.** What about the IC50 of neutralisation of Env-pseudotyped virus (TZM-bl assay) [17] of the same molecule?
**A.** The IC50 of neutralisation of Env-pseudotyped virus (TZM-bl assay) was 11.7 nM.

**Q.** And the IC50 of neutralisation of Env-pseudotyped virus (TZM-bl assay) [18]?
**A.** The IC50 of neutralisation of Env-pseudotyped virus (TZM-bl assay) was 10.8 nM.

**Q.** And the IC50 of neutralisation of Env-pseudotyped virus (TZM-bl assay) [27]?
**A.** Its IC50 of neutralisation of Env-pseudotyped virus (TZM-bl assay) is 24.5 nM.

**Q.** And the IC50 of neutralisation of Env-pseudotyped virus (TZM-bl assay) [19]?
**A.** Its IC50 of neutralisation of Env-pseudotyped virus (TZM-bl assay) is 33.1 nM.

**Q.** What about the IC50 of neutralisation of Env-pseudotyped virus (TZM-bl assay) [28] of the same molecule?
**A.** The IC50 of neutralisation of Env-pseudotyped virus (TZM-bl assay) was 40.9 nM.

**Q.** What about the IC50 of neutralisation of Env-pseudotyped virus (TZM-bl assay) [29] of the same molecule?
**A.** Its IC50 of neutralisation of Env-pseudotyped virus (TZM-bl assay) is 27.3 nM.

B1: Cyanovirin-N (natural protein)
chain: LGKFSQTCYNSAIQGSVLTSTCERTNGGYNTSSIDLNSVIENVDGSLKWQPSNFIETCRNTQLAGSSELAAECKTRAQQFVSTKINLDDHIANIDGTLKYE
**Q.** What does the source list for B1?
**A.** IC50 of neutralisation of Env-pseudotyped virus (TZM-bl assay) [1]: 1.1 nM; IC50 of neutralisation of Env-pseudotyped virus (TZM-bl assay) [2]: 1.2 nM; IC50 of neutralisation of Env-pseudotyped virus (TZM-bl assay) [3]: 4.4 nM; IC50 of neutralisation of Env-pseudotyped virus (TZM-bl assay) [4]: 3.1 nM; IC50 of neutralisation of Env-pseudotyped virus (TZM-bl assay) [5]: 1.2 nM; IC50 of neutralisation of Env-pseudotyped virus (TZM-bl assay) [6]: 18 nM; IC50 of neutralisation of Env-pseudotyped virus (TZM-bl assay) [7]: 1.8 nM; IC50 of neutralisation of Env-pseudotyped virus (TZM-bl assay) [20]: 3.1 nM; IC50 of neutralisation of Env-pseudotyped virus (TZM-bl assay) [8]: 1.2 nM; IC50 of neutralisation of Env-pseudotyped virus (TZM-bl assay) [9]: 3.9 nM; IC50 of neutralisation of Env-pseudotyped virus (TZM-bl assay) [10]: 16.7 nM; IC50 of neutralisation of Env-pseudotyped virus (TZM-bl assay) [23]: 1.1 nM; IC50 of neutralisation of Env-pseudotyped virus (TZM-bl assay) [11]: 7.5 nM; IC50 of neutralisation of Env-pseudotyped virus (TZM-bl assay) [12]: 3 nM; IC50 of neutralisation of Env-pseudotyped virus (TZM-bl assay) [13]: 1.4 nM; IC50 of neutralisation of Env-pseudotyped virus (TZM-bl assay) [14]: 1.8 nM; IC50 of neutralisation of Env-pseudotyped virus (TZM-bl assay) [24]: 1.1 nM; IC50 of neutralisation of Env-pseudotyped virus (TZM-bl assay) [25]: 1.1 nM; IC50 of neutralisation of Env-pseudotyped virus (TZM-bl assay) [26]: 1.5 nM; IC50 of neutralisation of Env-pseudotyped virus (TZM-bl assay) [16]: 2 nM; IC50 of neutralisation of Env-pseudotyped virus (TZM-bl assay) [18]: 0.9 nM; IC50 of neutralisation of Env-pseudotyped virus (TZM-bl assay) [27]: 0.3 nM; IC50 of neutralisation of Env-pseudotyped virus (TZM-bl assay) [19]: 1.2 nM; IC50 of neutralisation of Env-pseudotyped virus (TZM-bl assay) [28]: 2.5 nM; IC50 of neutralisation of Env-pseudotyped virus (TZM-bl assay) [29]: 2.5 nM

Reference: article PMC3401642
